From patent publication EP3020822A1

Target: human TLR3, full length (human) (UniProt O15455)
Assay: cell-based or functional assay

% inhibition of TLR3 biological activity, poly(I:C) NF-κB reporter gene assay in 293T cells, mAb at 10 µg/ml: 38%
TLR3 neutralization at saturation concentrations: 50%
B1: mAb c1068 (antibody, from another filing, V domains shown)
VH: QVQLQQPGAELVQPGTSVRLSCKASGYIFTTYWIHWVKQRPGQGLEWIGEINPNNGRINYNEKFKTKATLTVDKSSSTAYMQLSSLTSEDSAVYYCTRVGVMITTFPYWGQGTLVTVSA
VL: DIQMTQSPASLSASVGETVTITCRASGNIHNYLAWYQQKQGKSPQLLVYNAKTLADGVPSRFSGSESGTQYSLKINSLQPEDFGSYYCQHFWSTPFTFGSGTKLELK
